This is an account of results in the supplement of paper PMC10567573.

± gives the standard deviation.

The series in a line: protein stability index of a GFP-peptide fusion (GPS, HEK-293T) (PSI 1-6); higher = more stable.
The mark [1] stands for this setting: treatment: DMSO, c terminus: a fixed tail appended.
The mark [2] stands for this setting: treatment: MLN4924 1 uM, 8 h, c terminus: a fixed tail appended.
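Further: 24-mer peptide tiles fused after GFP, lentivirally expressed, FACS-sorted into six equal bins by GFP/DsRed ratio, decoded by Illumina sequencing, PSI is the read-weighted mean bin number.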

LLQRELAQEDSLNKLALQYGCKVA [LYSMD4]: the protein stability index was determined as 2.21 ± 0.34 under setting [1] and 2.52 ± 0.57 under setting [2].

On to GRRATLQRLVEALEENELTSLAED [TRADD], for which the protein stability index reads like this: under setting [1], 4.54 ± 0.19; under setting [2], 4.43 ± 0.14.

In the case of NFDNPWNFQNIPKETELPFPKQIL [MIA2], the protein stability index under setting [1] came out at 2.74 ± 0.27 and the protein stability index under setting [2] was 2.9 ± 0.4.

Consider NAAHLGDKRRDLAHLAAEVEGKCL [TRIM39], for which the protein stability index by setting is: under setting [1], 4.46 ± 0.22; under setting [2], 4.5 ± 0.16.

For CYSSRPLLCWSVWWALSTCGYFQV [SLC19A2], the protein stability index came to 2.53 ± 0.19 under setting [1] and 3.55 ± 0.31 under setting [2].

EFFSANAISDQLLGAGSDLKDFTL [ADAMTSL2] returned a protein stability index under setting [1] of 2.97 ± 0.26 and a protein stability index under setting [2] of 3.22 ± 0.42.

KEAVAALPPDVTTQSVMGFDPLPP [TCF25]: the protein stability index by setting is: under setting [1], 4.79 ± 0.29; under setting [2], 4.89 ± 0.26.

As to KCGIHSMFPLHLAALNAHSDCCRK [ANKRD44], the protein stability index is, setting by setting: under setting [1], 2.36 ± 0.2; under setting [2], 2.62 ± 0.33.

For SCKENCTCSSCLLRAPTISDLLND [EDARADD], the protein stability index is 4.85 ± 0.41 under setting [1] and 4.83 ± 0.33 under setting [2].

As for LKPAMTQAQDEVEQERRLSEARLS [FCHSD1], the protein stability index is, setting by setting: under setting [1], 5.25 ± 0.18; under setting [2], 5.19 ± 0.25.

Turning to QCLEDLVNHYSEVADGLCCVLTTP [SLA], the protein stability index by setting is: under setting [1], 2.11 ± 0.39; under setting [2], 2.27 ± 0.36.

Take NYLFMGDYVDRGYYSVETVTLLVA [PPP2CA]: the protein stability index reads like this: under setting [1], 2.71 ± 0.6; under setting [2], 2.82 ± 0.56.

Regarding DNVAYARAFNTDHQTQLLYQASAM [RAD51], the protein stability index came out at 3.12 ± 0.047 under setting [1] and 3.27 ± 0.15 under setting [2].

As to KQASNLETAIADAEQRGDNALKDA [KRT71], the protein stability index was 5.66 ± 0.18 under setting [1] and 5.62 ± 0.22 under setting [2].

As to QHRKINPKNREYDRFYVINYLVRL [ZNF277], the protein stability index under setting [1] was 3.16 ± 1.1 and the protein stability index under setting [2] came to 2.29 ± 0.64.

On to VESLKRFCASTRLPPTPLLLFPEE [AUP1], for which the protein stability index under setting [1] was 2.81 ± 0.35 and the protein stability index under setting [2] worked out at 3.01 ± 0.35.

For the sequence LEKWMQKNVEENLYSSSLGGGVAT [GLT8D2], the protein stability index is, setting by setting: under setting [1], 3.44 ± 0.2; under setting [2], 3.69 ± 0.26.

With DQTALSLEECLRLLEATCPFGENA [NFE2L1], the protein stability index came out at 3.31 ± 0.72 under setting [1] and 3.8 ± 0.74 under setting [2].

With ELENLAAMDLELQKIAEKFSQRG [CHGB], the protein stability index by setting is: (treatment: DMSO, c terminus: native) 2.62 ± 0.28; (treatment: MLN4924 1 uM, 8 h, c terminus: native) 3.33 ± 0.64.

As for GLQRNLLVENIIDIYKQECSSRPL [TRIM63], the protein stability index under setting [1] amounted to 2.71 ± 0.31 and the protein stability index under setting [2] was 2.87 ± 0.19.

SLNALEDQDLDALMADLVADISEA [APBB1IP]: the protein stability index is, setting by setting: under setting [1], 4.58 ± 0.15; under setting [2], 4.36 ± 0.23.

For the sequence LIVPFGLLYSEVTASSLVKINLQG [ADD1], the protein stability index reads like this: under setting [1], 3.03 ± 0.47; under setting [2], 2.88 ± 0.36.

In the case of DRVGTIKSKVVGDRENGSDNLPSS [TPD52L2], the protein stability index turned out to be 5.17 ± 0.29 under setting [1] and 5.17 ± 0.18 under setting [2].

The sequence KNYFQHREFSFTLKDDIYIRYQSF [PRIM1] had a protein stability index under setting [1] of 2.22 ± 0.9 and a protein stability index under setting [2] of 2.26 ± 0.87.

On to TMNRRVCVLMLLAAWIGGFLHSLV [OR4A15], for which the protein stability index runs as follows: under setting [1], 2.53 ± 0.36; under setting [2], 2.18 ± 0.24.

Turning to ENQEKTEDQYEENSHLTSVPHWIN [ETS2], the protein stability index runs as follows: under setting [1], 4.97 ± 0.21; under setting [2], 4.95 ± 0.22.

With LRSARGSRGGTRGWLPSHEGHLDD [RBMY1A1], the protein stability index is, setting by setting: under setting [1], 4.7 ± 0.35; under setting [2], 4.78 ± 0.17.

In the case of DCMGIDRQHIPDTYLCERCQPRNL [KMT2E], the protein stability index is, setting by setting: under setting [1], 3.13 ± 0.33; under setting [2], 3.4 ± 0.4.

As for QSLVSILRTTVHHAFPVVTENRGN [CLCN6], the protein stability index was 2.69 ± 0.57 under setting [1] and 2.46 ± 0.059 under setting [2].
